According to patent US20240116985A1, “STAPLED PEPTIDES AND METHODS THEREOF” (priority 2020, published 2024):
Starred links: 1 amine or outer side, 2 acyl side, 3 side chain; linkers in the order of their positions; H or OH if unused. Positions of bridges follow the written chain, without caps; N, C: chain ends. Non-standard residues stand in square brackets, D forms with d. Primed or numbered codes have the meaning given here. *: point of attachment. PyrS2″ = (S)-3-amino-1-((pent-4-en-1-yloxy)carbonyl)pyrrolidine-3-carboxylic acid (stapling residue), C=CCCCOC(=O)N1CC[C@@](N[*:1])(C(=O)[*:2])C1; SeN″ = (S)-5-(((allyloxy)carbonyl)(methyl)amino)-2-amino-2-methylpentanoic acid (stapling residue), C=CCOC(=O)N(C)CCC[C@](C)(N[*:1])C(=O)[*:2]; B5(30) = 2-amino-2-(pent-4-en-1-yl)hept-6-enoic acid (2,2-bis(4-pentenyl)glycine, stitching residue), C=CCCCC(CCCC=C)(N[*:1])C(=O)[*:2]; B5(4) = 2,2-bis(4-pentenyl)glycine = 2-amino-2-(pent-4-en-1-yl)hept-6-enoic acid (stitching residue), C=CCCCC(CCCC=C)(N[*:1])C(=O)[*:2]; B5(5) = 2,2-bis(4-pentenyl)glycine, 2-amino-2-(pent-4-en-1-yl)hept-6-enoic acid (stitching residue), C=CCCCC(CCCC=C)(N[*:1])C(=O)[*:2]; TfeGA = (S)-2-amino-3-((carboxymethyl)(2,2,2-trifluoroethyl)amino)propanoic acid, O=C([C@H](CN(CC(=O)[*:3])CC(F)(F)F)N[*:1])[*:2]; (3C)TriAzdLys = (R)-2-amino-6-(4-propyl-1H-1,2,3-triazol-1-yl)hexanoic acid, CCCc1cn(CCCC[C@@H](N[*:1])C(=O)[*:2])nn1; B5(3) = 2,2-bis(4-pentenyl)glycine (stitching residue), C=CCCCC(CCCC=C)(N[*:1])C(=O)[*:2]; Phe(3-CF3) = N[C@@H](Cc1cccc(C(F)(F)F)c1)C(=O)O; Phe(3-COOH) = N[C@@H](Cc1cccc(C(=O)O)c1)C(=O)O; Phe(2-CF3) = N[C@@H](Cc1ccccc1C(F)(F)F)C(=O)O; Phe(2-Cl) = N[C@@H](Cc1ccccc1Cl)C(=O)O; Phe(3-F) = N[C@@H](Cc1cccc(F)c1)C(=O)O; Phe(3-Me) = Cc1cccc(C[C@H](N)C(=O)O)c1; 1Nal = N[C@@H](Cc1cccc2ccccc12)C(=O)O; 2Nal = N[C@@H](Cc1ccc2ccccc2c1)C(=O)O; Bta = N[C@@H](Cc1csc2ccccc12)C(=O)O; Lys(iPr) = CC(C)NCCCC[C@H](N)C(=O)O; αAllylPro = C=CC[C@@]1(C(=O)O)CCCN1; tBuAla = CC(C)(C)C[C@H](N)C(=O)O; 2Thi = N[C@@H](Cc1cccs1)C(=O)O; 3Thi = N[C@@H](Cc1ccsc1)C(=O)O; Cha = N[C@@H](CC1CCCCC1)C(=O)O; S8 = C=CCCCCCC[C@](C)(N)C(=O)O; Butoxycarbonyl = CCCCOC(=O)*; hSer = N[C@@H](CCO)C(=O)O; Nle = CCCC[C@H](N)C(=O)O

B1: I-1270 (peptide)
peptide: Ac-[αAllylPro]D[tBuAla][B5(3)]DTAAFT[PyrS2″][2Nal][Bta]S-NH2
modifications: staple 1-4; staple 4-11 (inferred); not fully specified; printed as Ac-PL3-Asp-Npg-B5-Asp-Thr-Ala-Ala-Phe-Thr-PyrS2-2NapA-BztA-Ser-NH2
B2: I-1271 (peptide)
peptide: Ac-[αAllylPro]D[tBuAla][B5(3)]DTAAFT[PyrS2″][Phe(3-CF3)][Bta]S-NH2
modifications: staple 1-4; staple 4-11 (inferred); not fully specified; printed as Ac-PL3-Asp-Npg-B5-Asp-Thr-Ala-Ala-Phe-Thr-PyrS2-3F3MeF-BztA-Ser-NH2
B3: I-1272 (peptide)
peptide: Ac-[αAllylPro]D[tBuAla][B5(3)]DTAAFT[PyrS2″]F[1Nal]S-NH2
modifications: staple 1-4; staple 4-11 (inferred); not fully specified; printed as Ac-PL3-Asp-Npg-B5-Asp-Thr-Ala-Ala-Phe-Thr-PyrS2-Phe-1NapA-Ser-NH2
B4: I-2444 (peptide)
peptide: Ac-[αAllylPro]D[tBuAla][B5(30)]D[Phe(3-COOH)]AAFL[PyrS2″][Phe(2-CF3)][Bta]S[(3C)TriAzdLys]-NH2
modifications: staple 1-4, 4-11; not fully specified; printed as Ac-PL3-Asp-Npg-B5-Asp-3COOHF-Ala-Ala-Phe-Leu-PyrS2-2F3MeF-BztA-Ser-[3C]TriAzdLys-NH2
B5: I-2446 (peptide)
peptide: Ac-[αAllylPro]N[Cha][B5(5)]DQ[Lys(iPr)]AFL[PyrS2″][3Thi][Bta]Q-NH2
modifications: staple 1-4, 4-11; not fully specified; printed as Ac-PL3-Asn-Cha-B5-Asp-Gln-iPrLys-Ala-Phe-Leu-PyrS2-3Thi-BztA-Gln-NH2
B6: I-2447 (peptide)
peptide: Ac-[αAllylPro]N[Cha][B5(30)]DT[hSer]AFL[PyrS2″]F[Bta]Q-NH2
modifications: staple 1-4, 4-11; not fully specified; printed as Ac-PL3-Asn-Cha-B5-Asp-Thr-Hse-Ala-Phe-Leu-PyrS2-Phe-BztA-Gln-NH2
B7: I-2451 (peptide)
peptide: Ac-[αAllylPro]N[Cha][B5(30)]DQ[hSer]AFL[PyrS2″][3Thi][Bta]Q-NH2
modifications: staple 1-4, 4-11; not fully specified; printed as Ac-PL3-Asn-Cha-B5-Asp-Gln-Hse-Ala-Phe-Leu-PyrS2-3Thi-BztA-Gln-NH2; also: staple -CH=CH- reduced to -CH2-CH2-

Molecular target: full-length beta-Catenin (Uniprot ID P35222) (Homo sapiens (Human)) (UniProt P35222)
Test: fluorescence polarization competition; full-length beta-catenin + 5FAM-TCF4(10-53) probe
Target sequence in this assay (P35222 whole entry, the tested form may be a part): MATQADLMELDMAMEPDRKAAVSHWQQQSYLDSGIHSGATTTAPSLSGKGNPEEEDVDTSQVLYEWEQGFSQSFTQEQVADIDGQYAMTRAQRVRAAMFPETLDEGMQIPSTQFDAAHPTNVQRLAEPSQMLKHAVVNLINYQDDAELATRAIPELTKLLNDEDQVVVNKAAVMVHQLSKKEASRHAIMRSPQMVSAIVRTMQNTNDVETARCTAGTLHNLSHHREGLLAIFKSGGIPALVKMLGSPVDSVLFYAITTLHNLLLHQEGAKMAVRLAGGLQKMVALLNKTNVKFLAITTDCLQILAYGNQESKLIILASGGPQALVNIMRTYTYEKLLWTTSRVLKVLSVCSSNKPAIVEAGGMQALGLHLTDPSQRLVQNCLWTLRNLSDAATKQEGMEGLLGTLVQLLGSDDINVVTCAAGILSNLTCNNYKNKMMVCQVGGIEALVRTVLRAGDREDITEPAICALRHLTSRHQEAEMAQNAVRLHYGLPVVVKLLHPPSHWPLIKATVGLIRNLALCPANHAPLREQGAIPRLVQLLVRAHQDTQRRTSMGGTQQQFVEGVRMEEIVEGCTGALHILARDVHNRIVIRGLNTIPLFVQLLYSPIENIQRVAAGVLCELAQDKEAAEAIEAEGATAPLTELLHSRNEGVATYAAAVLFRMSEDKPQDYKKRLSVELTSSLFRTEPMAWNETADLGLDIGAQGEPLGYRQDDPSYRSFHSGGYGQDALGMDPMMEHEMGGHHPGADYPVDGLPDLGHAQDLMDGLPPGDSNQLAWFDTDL

Binder | EC50 [nM]
B1 | 3700
B2 | 682
B3 | 331

Molecular target: full-length beta-Catenin (Uniprot ID P35222) (Homo sapiens (Human)) (UniProt P35222)
Test: fluorescence polarization competition against 5FAM-TCF4(10-53), full-length beta-catenin
Target sequence in this assay (P35222 whole entry, the tested form may be a part): as above

Binder | IC50 [nM]
Butoxycarbonyl-[αAllylPro]D[tBuAla][B5(4)]D[Phe(3-COOH)]AAFL[PyrS2″][Phe(2-Cl)][Bta]A-NH2 (staple 1-4, 4-11) [I-2304] | 511

Molecular target: full-length beta-Catenin (Uniprot ID P35222) (Homo sapiens (Human)) (UniProt P35222)
Test: fluorescence polarization competition against 5FAM-TCF4(10-53) on full-length beta-catenin
Target sequence in this assay (P35222 whole entry, the tested form may be a part): as above

Binder | IC50 [nM]
B1 | 3700
B2 | 682
B3 | 331

Molecular target: full-length beta-Catenin (Uniprot ID P35222) (Homo sapiens (Human)) (UniProt P35222)
Test: fluorescence polarization competition; full-length beta-catenin, 5FAM-TCF4(10-53) probe displaced
Target sequence in this assay (P35222 whole entry, the tested form may be a part): as above

Binder | IC50 [nM]
Ac-[αAllylPro]D[tBuAla][B5(3)]NDAAFN[PyrS2″][3Thi][Bta]Q-NH2 (staple 1-4, 4-11) [Ac-PL3-Asp-Npg-B5-Asn-Asp-Ala-Ala-Phe-Asn-PyrS2-3Thi-BztA-Gln-NH2] | 32
Ac-[αAllylPro]D[tBuAla][B5(3)]NDAAFL[PyrS2″][3Thi][Bta]Q-NH2 (staple 1-4, 4-11) [Ac-PL3-Asp-Npg-B5-Asn-Asp-Ala-Ala-Phe-Leu-PyrS2-3Thi-BztA-Gln-NH2] | 40
Ac-[αAllylPro]D[tBuAla][B5(5)]SDAAFN[PyrS2″][3Thi][Bta]Q-NH2 (staple 1-4, 4-11) [Ac-PL3-Asp-Npg-B5-Ser-Asp-Ala-Ala-Phe-Asn-PyrS2-3Thi-BztA-Gln-NH2] | 349
Ac-[αAllylPro]D[tBuAla][B5(5)]SDAAFL[PyrS2″][3Thi][Bta]Q-NH2 (staple 1-4, 4-11) [Ac-PL3-Asp-Npg-B5-Ser-Asp-Ala-Ala-Phe-Leu-PyrS2-3Thi-BztA-Gln-NH2] | 479
Ac-[αAllylPro]D[tBuAla][B5(5)]QDAAFN[PyrS2″][3Thi][Bta]Q-NH2 (staple 1-4, 4-11) [Ac-PL3-Asp-Npg-B5-Gln-Asp-Ala-Ala-Phe-Asn-PyrS2-3Thi-BztA-Gln-NH2] | 56
Ac-[αAllylPro]D[tBuAla][B5(5)]QDAAFL[PyrS2″][3Thi][Bta]Q-NH2 (staple 1-4, 4-11) [Ac-PL3-Asp-Npg-B5-Gln-Asp-Ala-Ala-Phe-Leu-PyrS2-3Thi-BztA-Gln-NH2] | 115
Ac-[αAllylPro]D[tBuAla][B5(5)]LDAAFN[PyrS2″][3Thi][Bta]Q-NH2 (staple 1-4, 4-11) [Ac-PL3-Asp-Npg-B5-Leu-Asp-Ala-Ala-Phe-Asn-PyrS2-3Thi-BztA-Gln-NH2] | 8660
Ac-[αAllylPro]D[tBuAla][B5(5)][hSer]DAAFN[PyrS2″][3Thi][Bta]Q-NH2 (staple 1-4, 4-11) [Ac-PL3-Asp-Npg-B5-Hse-Asp-Ala-Ala-Phe-Asn-PyrS2-3Thi-BztA-Gln-NH2] | 116
Ac-[αAllylPro]D[tBuAla][B5(5)][hSer]DAAFL[PyrS2″][3Thi][Bta]Q-NH2 (staple 1-4, 4-11) [Ac-PL3-Asp-Npg-B5-Hse-Asp-Ala-Ala-Phe-Leu-PyrS2-3Thi-BztA-Gln-NH2] | 216
Ac-[αAllylPro]N[tBuAla][B5(3)]DDAAFL[PyrS2″][3Thi][Bta]Q-NH2 (staple 1-4, 4-11) [Ac-PL3-Asn-Npg-B5-Asp-Asp-Ala-Ala-Phe-Leu-PyrS2-3Thi-BztA-Gln-NH2] | 14
Ac-[αAllylPro]S[tBuAla][B5(5)]DDAAFN[PyrS2″][3Thi][Bta]Q-NH2 (staple 1-4, 4-11) [Ac-PL3-Ser-Npg-B5-Asp-Asp-Ala-Ala-Phe-Asn-PyrS2-3Thi-BztA-Gln-NH2] | 511
Ac-[αAllylPro]S[tBuAla][B5(5)]DDAAFL[PyrS2″][3Thi][Bta]Q-NH2 (staple 1-4, 4-11) [Ac-PL3-Ser-Npg-B5-Asp-Asp-Ala-Ala-Phe-Leu-PyrS2-3Thi-BztA-Gln-NH2] | 550
Ac-[αAllylPro]Q[tBuAla][B5(5)]DDAAFN[PyrS2″][3Thi][Bta]Q-NH2 (staple 1-4, 4-11) [Ac-PL3-Gln-Npg-B5-Asp-Asp-Ala-Ala-Phe-Asn-PyrS2-3Thi-BztA-Gln-NH2] | 389
Ac-[αAllylPro]Q[tBuAla][B5(5)]DDAAFL[PyrS2″][3Thi][Bta]Q-NH2 (staple 1-4, 4-11) [Ac-PL3-Gln-Npg-B5-Asp-Asp-Ala-Ala-Phe-Leu-PyrS2-3Thi-BztA-Gln-NH2] | 305

Molecular target: full-length beta-Catenin (Uniprot ID P35222) (Homo sapiens (Human)) (UniProt P35222)
Test: fluorescence polarization competition; 10 nM full-length beta-catenin + 10 nM 5FAM-TCF4(10-53) probe, peptide titrated
Target sequence in this assay (P35222 2-781 limits assumed): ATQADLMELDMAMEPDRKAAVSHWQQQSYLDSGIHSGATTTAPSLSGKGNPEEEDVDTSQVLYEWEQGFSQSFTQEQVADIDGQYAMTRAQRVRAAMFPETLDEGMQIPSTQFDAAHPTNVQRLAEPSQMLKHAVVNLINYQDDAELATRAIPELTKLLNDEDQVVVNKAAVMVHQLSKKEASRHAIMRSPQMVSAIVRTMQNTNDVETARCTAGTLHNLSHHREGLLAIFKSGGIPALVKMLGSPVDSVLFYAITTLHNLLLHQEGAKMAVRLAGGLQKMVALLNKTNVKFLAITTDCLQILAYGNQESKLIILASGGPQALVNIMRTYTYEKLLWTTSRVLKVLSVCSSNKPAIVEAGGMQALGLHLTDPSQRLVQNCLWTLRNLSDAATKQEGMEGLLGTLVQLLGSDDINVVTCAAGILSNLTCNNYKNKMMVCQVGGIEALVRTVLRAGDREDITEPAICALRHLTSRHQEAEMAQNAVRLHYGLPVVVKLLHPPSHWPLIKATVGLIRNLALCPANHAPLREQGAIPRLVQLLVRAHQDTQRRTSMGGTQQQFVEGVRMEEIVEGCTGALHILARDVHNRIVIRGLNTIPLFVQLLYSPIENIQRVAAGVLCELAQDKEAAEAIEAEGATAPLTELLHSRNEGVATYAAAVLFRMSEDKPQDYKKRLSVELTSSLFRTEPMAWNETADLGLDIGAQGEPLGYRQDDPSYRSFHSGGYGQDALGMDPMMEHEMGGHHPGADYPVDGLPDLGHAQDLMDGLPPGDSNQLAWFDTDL

Binder | EC50 [nM]
Ac-[αAllylPro]DA[B5(4)]D[2Thi]AAFV[S8][Phe(3-F)][Bta]Q-NH2 (staple 1-4, 4-11) [I-402] | 5000
Ac-[αAllylPro]DA[B5(4)]D[TfeGA]AA[Phe(3-Me)]Q[S8][Phe(3-F)][Bta]Q-NH2 (staple 1-4, 4-11) [I-404] | 1850
Ac-[αAllylPro]DA[B5(3)]D[TfeGA]AA[Phe(3-Me)]Q[SeN″][Phe(3-F)][Bta]Q-NH2 (staple 1-4, 4-11) [I-405] | 3820
Ac-[αAllylPro]DI[B5(3)]DEAAFQ[S8]F[Bta]-NH2 (staple 1-4, 4-11; also: staple isomer composition, earlier eluting HPLC peak) [I-408] | 120
Ac-[αAllylPro]DI[B5(3)]DEAAFQ[S8]F[Bta]-NH2 (staple 1-4, 4-11; also: staple isomer composition, later eluting HPLC peak) [I-409] | 70
Ac-[αAllylPro]D[Nle][B5(3)]DEAAFA[S8]F[Bta]Q-NH2 (staple 1-4, 4-11) [I-411] | 189

Molecular target: full-length beta-Catenin (Uniprot ID P35222) (Homo sapiens (Human)) (UniProt P35222)
Test: fluorescence polarization competition; full-length beta-catenin with 5FAM-labeled TCF4 (residues 10-53) probe as competitor
Target sequence in this assay (P35222 whole entry, the tested form may be a part): as the sequence (P35222 whole entry, the tested form may be a part) above

Binder | IC50 [nM]
Ac-[αAllylPro]DA[B5(4)]D[2Thi]AAFV[S8][Phe(3-F)][Bta]Q-NH2 (staple 1-4, 4-11) [I-402] | 5000
Ac-[αAllylPro]DA[B5(4)]D[TfeGA]AA[Phe(3-Me)]Q[S8][Phe(3-F)][Bta]Q-NH2 (staple 1-4, 4-11) [I-404] | 1850
Ac-[αAllylPro]DA[B5(3)]D[TfeGA]AA[Phe(3-Me)]Q[SeN″][Phe(3-F)][Bta]Q-NH2 (staple 1-4, 4-11) [I-405] | 3820
Ac-[αAllylPro]DI[B5(3)]DEAAFQ[S8]F[Bta]-NH2 (staple 1-4, 4-11; also: staple isomer composition, earlier eluting HPLC peak) [I-408] | 120
Ac-[αAllylPro]DI[B5(3)]DEAAFQ[S8]F[Bta]-NH2 (staple 1-4, 4-11; also: staple isomer composition, later eluting HPLC peak) [I-409] | 70
Ac-[αAllylPro]D[Nle][B5(3)]DEAAFA[S8]F[Bta]Q-NH2 (staple 1-4, 4-11) [I-411] | 189

Molecular target: full-length beta-Catenin (Uniprot ID P35222) (Homo sapiens (Human)) (UniProt P35222)
Test: fluorescence polarization competition; 10 nM full-length beta-catenin + 10 nM 5FAM-TCF4(10-53) probe, peptide titrated 10 uM to 5 nM
Target sequence in this assay (P35222 2-781 limits assumed): as the sequence (P35222 2-781 limits assumed) above

Binder | IC50 [nM]
Ac-[αAllylPro]N[tBuAla][B5(5)]DHAAFL[PyrS2″]F[Bta]Q-NH2 (staple 1-4, 4-11) [I-2442] | 282
Ac-[αAllylPro][hSer][tBuAla][B5(5)]DQAAFL[PyrS2″]F[Bta]Q-NH2 (staple 1-4, 4-11) [I-2443] | 6670
B4 | 121
B5 | 93
B6 | 3250
Ac-[αAllylPro]N[Cha][B5(30)]DT[hSer]AFL[PyrS2″]F[Bta]K-NH2 (staple 1-4, 4-11) [I-2449] | 10000
Ac-[αAllylPro]N[Cha][B5(4)]DT[Lys(iPr)]AFL[PyrS2″]F[Bta]K-NH2 (staple 1-4, 4-11) [I-2450] | 63
B7 | 4860
